Measured values as given in the nanobody polyreactivity screen of Harvey et al. (2022).

experiment: yeast display, Sf9 membrane polyspecificity reagent, FACS + sequencing; frameworks hold sequencing errors
In short: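 A nanobody's polyreactivity label depends on the gate it was sorted from. Yeast display cells were stained with 10% biotinylated, detergent-solubilized Sf9 membrane reagent for 1 hour at 4 °C, enriched on streptavidin microbeads and sorted by FACS. The low and high (top ~1%) gates were set on anti-HA fluorescence for expression and streptavidin fluorescence for reagent binding.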

Question: With “QVQLVESGGGLVQAGGSLRLSCAASGSTFPANAMGWYRQAPGKERELVATISWSGGRTYYADSVKGRFTISRDNAKNTVYIQMNSLKPEDTAVYYCAAYPLYRRRWTGDYWGQGTQVTVSS” as the sequence, how does the “polyreactivity (PSR sort gate)” value read?
Answer: high polyreactivity

Question: With “QVQLVESGGGLVQAGGSLRLSCAASGSTFPAYAMGWYRQAPGKERELVAAITRGGSTNYADSEKGRFTISRDNAKNTVYLQMNSLKPEDTAVYYCAADKRYWWRYNYWASRSRGESWGQGTQVTVSS” as the sequence, how does the “polyreactivity (PSR sort gate)” value read?
Answer: high polyreactivity

Question: For “QVQLVESGGGLVQAGGSLRLSCAASGSTFPAYTMGWYRQAPGKERELVAAINVSSGGSTYYADSVKGRFTISRDNAKNTVYLQMNSLKPEDTAVYYCATRYVTTGYDYWGQGTQVTVSS”, which “polyreactivity (PSR sort gate)” value is on record?
Answer: low polyreactivity

Question: Which “polyreactivity (PSR sort gate)” value does the source give for “QVQLVESGGGLVQAGGSLRLSCAASGSTFPDYAMGWSRPAPGKERELVATINDGDSTSYADSVKGRFTISRDNAKNTVYLQMNSLKTEDTAVYYCAADIRSNRLYDGGYWGQGTQVTVSS” here?
Answer: low polyreactivity

Question: Which “polyreactivity (PSR sort gate)” value does the source give for “QVQLVESGGGLVQAGGSLRLSCAASGSTFPDYAMGWYRQAPGKDRELVAAISGDSDDTYYADSVKGRFTISRDNAKNTVYLQMNSLKPEDTAVYYCAARRGRAVYSVAYDYWGQGTQVTVSS” here?
Answer: high polyreactivity

Question: With “QVQLVESGGGLVQAGGSLRLSCAASGSTFPDYAMGWYRQAPGKEREFVASITWSDGSTYYADSVKGRFTISRDNAKNTVYLQMNSLKPEDTAVYYCIADYVYYYIPVVYEYDYWGQGTQVTVSS” as the sequence, how does the “polyreactivity (PSR sort gate)” value read?
Answer: high polyreactivity

Question: Which “polyreactivity (PSR sort gate)” value does the source give for “QVQLVESGGGLVQAGGSLRLSCAASGSTFPDYAMGWYRQAPGKERELVAAIDGSSGSTYYADSVKGRFTISRDNAKNSVYLRMYSLKPEDTAVYYCNVVASLYTYGYWGQGTQVTVSS” here?
Answer: low polyreactivity

Question: For “QVQLVESGGGLVQAGGSLRLSCAASGSTFPDYAMGWYRQAPGKERELVAVITIRGGSTYYADSVKGRFTISRDNAKNTVYLQMNSLKPEDTAVYYCAATGQLQGWYDMYYWGQGTQVTVSS”, which “polyreactivity (PSR sort gate)” value is on record?
Answer: low polyreactivity

Question: With “QVQLVESGGGLVQAGGSLRLSCAASGSTFPEYGMGWYRQAPGKERELVAAINSRGGNTYYADSVKGRFTISRDNAKKTVYLQMNSLKPEDTAVYYCNRLSSYNMDYWGQGTQVTVSS” as the sequence, how does the “polyreactivity (PSR sort gate)” value read?
Answer: high polyreactivity

Question: With “QVQLVESGGGLVQAGGSLRLSCAASGSTFPFYDMGWYRQAPGKERELVAAIRYTGNTYYADSVKGRFTISRDNAKNTVYLQMNSLKPEDTAVYYCAADADYWAYGYWGQGTQVTVSS” as the sequence, how does the “polyreactivity (PSR sort gate)” value read?
Answer: low polyreactivity

Question: For “QVQLVESGGGLVQAGGSLRLSCAASGSTFPGNAMGWYRQAPGKERELVAAITSTGTTYYADSVKGRFTISRDNAKNTVYLQMNSLKPEDSAVYYCNADRYPDPSTFDYWGQGTLVTVSS”, which “polyreactivity (PSR sort gate)” value is on record?
Answer: low polyreactivity

Question: Which “polyreactivity (PSR sort gate)” value does the source give for “QVQLVESGGGLVQAGGSLRLSCAASGSTFPGNAMGWYRQAPGKERELVARINDGADTNYADSVKGRFTISRDNAKTTVSLQMNSLKPEDTAVYYCANPYFDGRTHFDSWGQGTQVTVSS” here?
Answer: low polyreactivity

Question: With “QVQLVESGGGLVQAGGSLRLSCAASGSTFPGNAMGWYRQSPGKERELVAAISDGVRTSYADSVKGRFTISRDNAKNTVYLQMNSLKPEDTAVYYCNADFARQYDPHVLYITVGMDYWGQGTKVTVSS” as the sequence, how does the “polyreactivity (PSR sort gate)” value read?
Answer: low polyreactivity

Question: With “QVQLVESGGGLVQAGGSLRLSCAASGSTFPGYAMGRYRPAPGKERELVAAISASGGSTYYADSVKGRFTISRDYAKNTVYLQMNSLTPEDTAVYYCAKVLSRGASAHVYWGQGTQVTVSS” as the sequence, how does the “polyreactivity (PSR sort gate)” value read?
Answer: low polyreactivity

Question: Which “polyreactivity (PSR sort gate)” value does the source give for “QVQLVESGGGLVQAGGSLRLSCAASGSTFPGYAMGWYRQAPGKERELVAAINWRGDSTYYADSVKGRFTISRDNAKNTVYLEMNSLKPEDPAVYFCNTVWGSPSRSSAYDYWGQGTQVTVSS” here?
Answer: high polyreactivity

Question: For “QVQLVESGGGLVQAGGSLRLSCAASGSTFPGYAMGWYRQAPGKERELVAAINWRGDSTYYADSVKGRFTISRDNAKNTVYLQMNSLKPEDTAVYYCAAKYNHVTDEYDYWGQGTEVTVSS”, which “polyreactivity (PSR sort gate)” value is on record?
Answer: high polyreactivity

Question: With “QVQLVESGGGLVQAGGSLRLSCAASGSTFPHNPMGWYRQQPGKERELVAAISVGGGSKHYADSVKGRFTISRDNAKNTVYFQMNSLKPEDTAVYYCAKDYAYQYSFVTYDYWGQGTLVTVSS” as the sequence, how does the “polyreactivity (PSR sort gate)” value read?
Answer: low polyreactivity

Question: With “QVQLVESGGGLVQAGGSLRLSCAASGSTFPKYGMGWYRQAPGKEREFVARINWNGGGTYYADSVKGRFTISRDYAKNTVYLQMNSLKPEDTAVYYCNARKRGARFILGYDYWGQGTQVTVSS” as the sequence, how does the “polyreactivity (PSR sort gate)” value read?
Answer: low polyreactivity

Question: For “QVQLVESGGGLVQAGGSLRLSCAASGSTFPKYPMGWYRQSPGKERELVASISVTTGSTYYADSVKGRFTISRDNAKHTVYLQMNSLKPEDTAVYYCAKRTYSRKFRGAYNYWGLGTQVTVSS”, which “polyreactivity (PSR sort gate)” value is on record?
Answer: high polyreactivity

Question: Which “polyreactivity (PSR sort gate)” value does the source give for “QVQLVESGGGLVQAGGSLRLSCAASGSTFPLYTMGWYRQAPGKEREFVAAISRSGGSTYYADSVKGRFTISRDNAKNTVFLQINSLKPEDTAVYYCDTRSYKSRTYDYWGQGTQVSVSS” here?
Answer: high polyreactivity

Question: Which “polyreactivity (PSR sort gate)” value does the source give for “QVQLVESGGGLVQAGGSLRLSCAASGSTFPPYAMGWYRQAPGKERELVAAISNVGSTNYADSVKGRFTISRDNAKNTVYLQMNSLKPEETAVYYCAADFWERFALWGWIYLDYDYWGQGTQVTVSS” here?
Answer: low polyreactivity

Question: For “QVQLVESGGGLVQAGGSLRLSCAASGSTFPQYAMGWDRQAPGKERELVAVITDSGGSTYYADSVKGRFTISRDNAKNTVYLQKNSLKPEDTAVYYCAARRWSPRSGLGYGYWGQGTQVTVSS”, which “polyreactivity (PSR sort gate)” value is on record?
Answer: high polyreactivity

Question: For “QVQLVESGGGLVQAGGSLRLSCAASGSTFPQYTMGWSRQAQGKERELVAAITSGGRTYYADSVKGRFTISRDNAKNTVYLQMNSLKPEDTAVYFCAAGYWYRYFYYTSSPYDYWGQGTQVTVSS”, which “polyreactivity (PSR sort gate)” value is on record?
Answer: high polyreactivity

Question: With “QVQLVESGGGLVQAGGSLRLSCAASGSTFPQYVMGWYRQEPGKERELVAAITKSGGRTYYADSVKGRFTISRDNAKNTVYLQMNSLKPEDTAVYYCAAVRWDISRFRYYSWGHGTQVTVSS” as the sequence, how does the “polyreactivity (PSR sort gate)” value read?
Answer: high polyreactivity

Question: With “QVQLVESGGGLVQAGGSLRLSCAASGSTFPRNAMGWYRQAPGKERELVAAITSGGSTYYADSVKGRFTISRDNAKNTVYLQMNSLKPEDTAVYYCAKSRSSYPYRTYYYWGQGTQVTVSS” as the sequence, how does the “polyreactivity (PSR sort gate)” value read?
Answer: low polyreactivity

Question: For “QVQLVESGGGLVQAGGSLRLSCAASGSTFPRNAMGWYRQAPGKERELVARITWSGGDTYYADSVKGRFTISRDNSKNTVYLQMISLKPEDTAVYYCAARWYRSVLAKVGYGYWGQGTQVTVSS”, which “polyreactivity (PSR sort gate)” value is on record?
Answer: high polyreactivity

Question: Which “polyreactivity (PSR sort gate)” value does the source give for “QVQLVESGGGLVQAGGSLRLSCAASGSTFPRYAMGWYRQAPGKERELVAAISSGGSTYYADSVKGRFTISRDNAKNTVYLQMNSLKPEDTAVYYCNARRSRSRYDYWGQGTQVTVSS” here?
Answer: high polyreactivity

Question: Which “polyreactivity (PSR sort gate)” value does the source give for “QVQLVESGGGLVQAGGSLRLSCAASGSTFPRYAMGWYRQAPGKERELVAAISSGGSTYYADSVKGRFTISRDNAKNTVYLQMNSLKPEDTAVYYCNRRPGARYNYWGQGTQVTVSS” here?
Answer: high polyreactivity

Question: With “QVQLVESGGGLVQAGGSLRLSCAASGSTFPRYAMGWYRQAPGKERELVADISSGGSTYYADSVKGRFTISRDNAKNTVYLQMNSLKPEDTAVYYCNARRSRSRYDYWGQGTQVTVSS” as the sequence, how does the “polyreactivity (PSR sort gate)” value read?
Answer: high polyreactivity

Question: Which “polyreactivity (PSR sort gate)” value does the source give for “QVQLVESGGGLVQAGGSLRLSCAASGSTFPRYAMGWYRQAPGKERELVASITSDGGSTYYADSVKGRFTISRDNAKNTVYLQMNSLKPEDTAFYYCNKVPYRGYRRYGYWGQGTQVTVSS” here?
Answer: high polyreactivity

Question: Which “polyreactivity (PSR sort gate)” value does the source give for “QVQLVESGGGLVQAGGSLRLSCAASGSTFPSNAMGWYRQAPGKERELVAAISRSGGSTYYADSVKGRFTISRDNAKNTVYLQMNSLKPEDTAVYYCAVQVRPNSGGTRIHRGGYDYWGQGTQVTVSS” here?
Answer: low polyreactivity

Question: With “QVQLVESGGGLVQAGGSLRLSCAASGSTFPSYVMGWSRQAPGKARELVAAISSSGGRTYYADSVKGRFTISRDNAKNTVYLQMNSLKPEDTAVYYCAAKRGPLVYDHDYWGQGTQVTVSS” as the sequence, how does the “polyreactivity (PSR sort gate)” value read?
Answer: high polyreactivity

Question: For “QVQLVESGGGLVQAGGSLRLSCAASGSTFPTNAMGWYRQAPGKERELVAGITEGGSSTYYADSVKGRFTISRDNAKNTVYLQMTSLKPEDTAVYYCAAAARAGLKRYYYWGQGTQVTVSS”, which “polyreactivity (PSR sort gate)” value is on record?
Answer: high polyreactivity

Question: Which “polyreactivity (PSR sort gate)” value does the source give for “QVQLVESGGGLVQAGGSLRLSCAASGSTFPTYAMGWYRQAPGKESELVAAISFSGARTYYADSVKGRFTISRDNAKNTVYLQMNSLKPEDTAVYYCAKDSSYSRRYEYWGQGTQVTVSS” here?
Answer: high polyreactivity

Question: With “QVQLVESGGGLVQAGGSLRLSCAASGSTFPVNTMGWYRQAPGKERELVAAISSDDNTNYADSVKGRFTISRDNAKNTVYLQMNSLKPEDTAVYYCAVKGHPAYVEVPPRYAWEFDYWGQGTQVTVSS” as the sequence, how does the “polyreactivity (PSR sort gate)” value read?
Answer: low polyreactivity

Question: For “QVQLVESGGGLVQAGGSLRLSCAASGSTFPVYAMGWYRQAPGKERELVAAISLIGGSTYYADSVKGRFTISRDNAKNTVYLQMNSLNPEDTAVYYCNNAVISSPPAIDVLEMDYWGQGTQVTVSS”, which “polyreactivity (PSR sort gate)” value is on record?
Answer: low polyreactivity

Question: Which “polyreactivity (PSR sort gate)” value does the source give for “QVQLVESGGGLVQAGGSLRLSCAASGSTFPVYAMGWYRQAPGKERELVAAISRAGSTNYADSVKGRFTISRHNAKNTVYLEMNSLKPEDTAVYYCAARGYLWAGEWYVRRDYWGQGTQVTVSS” here?
Answer: high polyreactivity

Question: For “QVQLVESGGGLVQAGGSLRLSCAASGSTFPWYAMGWYRQAPGKERELVASITSGTTTNYADSVKGRFTISRDNAKNTVYLQMNSLKPEDTAVYYCAASWVYPYDYWGQGTQVTVSS”, which “polyreactivity (PSR sort gate)” value is on record?
Answer: low polyreactivity

Question: For “QVQLVESGGGLVQAGGSLRLSCAASGSTFPYNARGWYRQAPGKERELVAAINSNGGSTYYADSVKGRFTISRDNAKNTVYLQMNSLKPEDTAVYYCAAGFYYRPFYGSSHSYGYWGQGTQVTVSS”, which “polyreactivity (PSR sort gate)” value is on record?
Answer: low polyreactivity

Question: With “QVQLVESGGGLVQAGGSLRLSCAASGSTFPYNVMGWYRQAPGKERELVASISWSGGRQYYADSVKGRFTISRDNAKNTVYLQMNSLKPEDTAVYYCAADAAFPADYWGQGTQVTVSS” as the sequence, how does the “polyreactivity (PSR sort gate)” value read?
Answer: low polyreactivity

Question: With “QVQLVESGGGLVQAGGSLRLSCAASGSTFPYYAMGWYRQAPGKERELVAAITSSGGSTYYADSVKGRFTISRDNAKNTVYLQMNSLKPEDTAVYYCAKGYGPYRQMNYWGQGTQVTVSS” as the sequence, how does the “polyreactivity (PSR sort gate)” value read?
Answer: low polyreactivity

Question: For “QVQLVESGGGLVQAGGSLRLSCAASGSTFPYYAMGWYRQAPGKERELVAAITSSTGRTYYADSVKGRFTISRDNAKNSVYLQMNSLKPEDSAVYYCNAEVYSDPYNDHDYWGQGTQVTVSS”, which “polyreactivity (PSR sort gate)” value is on record?
Answer: low polyreactivity

Question: With “QVQLVESGGGLVQAGGSLRLSCAASGSTFPYYAMGWYRQAPGKERELVARISYRGGRTYYADSVKGRFTISRDNAKNTVYLQMNSLKPEDTAVYYCAADRWVYYHSTRYDYWGQGTQVTVSS” as the sequence, how does the “polyreactivity (PSR sort gate)” value read?
Answer: high polyreactivity
